Assay: soluble fraction after stress (log2 fold change); higher = more stays soluble; pooled small domains, quantitative proteomics
Details: stress: pH 4
Outline: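 How much of each domain stays soluble after acid stress, expressed as a fold change, is used to gauge aggregation propensity. Pooled custom libraries of small domains underwent pH 4 stress before high-throughput quantitative proteomics. A higher log2 value means more of the domain stayed soluble.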

| Sequence | soluble fraction (log2) |
| --- | --- |
| HMEKINLLVENNDNYRLDKIIALNMEELSRTQIQEMIGQGLVLVNGKVEKASYKTKLNDQIEITIED | -0.409 |
| HMLVPWKSANLFKLVEPNFRLAERKIPMLPSADREKLQEIMSDMKDAIVDNDKMALMKLDEELTDFLFDFV | -1.03 |
| HMKGVTVDGDNITVDGEKQTLISVNKNLDGDVVSYTYRTADGKLRTSRNVEVAQEINKQQLLKSIDAQ | 0.0219 |
| HMGPWTETAAKGDAVSKRMLITWLQENADAEFLAAQKLTGQATSVAKRVTKDQLVELYLSVTTAA | -0.149 |
| HMEYTVNRLAQISGVSKRTLRYYDEIGLLRPERVNPNGYRIYGQMQVDLLQQILFYRELGLPLEEIREII | -0.639 |
| HMAAYRLIPLGNSNKDFETYQEAIQYMRDKLDESSKAFEEGKQNWVYSGRVYGVPWSDGRTTFTVDLVPKV | 0.0755 |
| HMNMDLGHSISKLRTDANLTQEKFAQILNVSRQTVQKWEYGEALPDIHNIIKIAKFFNISLDALVLRS | -0.222 |
| HMNGVSNETLIQKSALYEELNQPDLALKMINTALKKDSVNIEILHRLVTLLMSQEKNEEAILYNQKIIDH | -0.0993 |
| HMDSLQDFAYEEIKKRIQNGEYAPGTKLNTQEISDSLGISRSPVLAAINRLIALGLVEATPRKGTTVA | -0.0359 |
| HMVGVDMTVKEEVGKEGVTFTDLRPAGKVEIGNDIYDAVSNTGAFIQKGEKVKIIKYQAGQVYVEKLV | 0.187 |
| HMAGSTAASKHALALLNTARHSIRDGNLTSAAAEIKQALATSQEQIVITEARSLMTAMEARATTRRATVLQ | -0.179 |
| HMKPSISKIYALWGVLQRSGKIKSQDKAALDAFVRKYTGVDHVKWLDESQARKIIEILKQMIA | 0.104 |
| HMGQAAHYEGVKGDGESDTDVISRVLTAAGAEAQKDDIFVVKELIAGGKYSYTAYVYDGSVWAAM | -0.502 |
| HMENHILIIDDDLMLLKTAEEILSDQYNVSVAKSGIQALNLLNKNIIPDLILLDIDMPQMDGYETL | -0.554 |
| HMKETERKILQAVLGLPLKYRDVIHLFYYEEMSVKEIAEVLHRQESTVTSQLTRARGILKKNL | -0.377 |
| HMTSMNNTEELIDMANKIIDNNPNMVLKYKEGRNVLDFFIGQVMKETKGRANPSATSKIFKDLLEK | 0.171 |
| HMSDKFNALWIILNKLDKKEKVTARSLMEDLEVSERSVYRYITTLQVAGFPVDYDRAVNSYVFSDGYTLK | -2.16 |
| HMSSGLLTVQEQRILEHLANGERNGDIAGRLHISEGTVKWHLHNMYRKLDAATRTQAVARARALRL | -0.428 |
| HMKLSKLTKPELDEIFRNANFTEEEEKVFWLLARGKSLEQISAKTFLPIATVNRRVKSIKDKIG | 0.34 |
| HMGAVVSPMPGVILDIKVKEGDSVSEGQTVIILEAMKMENEIVSEFTGTVSAIRVKKGDTVDTDAVLVEI | -1.04 |
| HMSAEVSEIEIQRIISYYRNQNGVPDKYNEIFDRIAAQYTDEQLKVISNFLPSDVKQYLSFNNEKYKSLG | -0.955 |
| HMLTLDEKRRLQIMRVQVALTSLGLYNGRVDGVLNAETKLGLEFFQDLKGLPKSGTMTTPTLNALGVPA | -0.347 |
| HMSERIITFGEATREAMLEEMRADERVFVYGEDIAKQGGIFGQFAGMKDEFPERVLDTPISETALVGAG | -0.679 |
| HMRRVGTALNRSHKVSYGESIQSIAARYNVNPTMLREYNRLKPEATITPGQILRIPPATIAS | -0.195 |
| HMANHIAAIHVLKSKLQMSDSDYRVLITGLTQKASTKDMSDIERQRVRDHMQGLAERMGVVK | 0.0887 |
| HMSENMSQDLAQWYRLQQALHPNLDAPELWATDLTSQQRTVRDQLIQQWAQEKRDSLWSEISGD | -0.618 |

| Sequence | soluble fraction (log2) |
| --- | --- |
| HMEGSVTVMVNGESVTMTGKQNYIFVDVFDWYSFDLSAGKGRAIATLVNGKEAEFSQPLANGDNIELYWKE | -1.42 |
| HMINFLSKREIEVLRLVADGLSNRDVGQYLFISESTVKRHLSTIYEKLAVKSRTQAIDHARRADL | -1.39 |
| HMDPTVTFIVQVNGRVRDKITLSSDISENEAKNVALESPKITPHISGKSLSRVIFVPGKLINLVV | 0.162 |
| HMSDRFVRIVMNDGTVKLGQMISEDADFIRLKTNNLGELNIPKYLVLDMMDLTRSEYVRLSISNAG | -0.426 |
| HMTVEVFQSLVQTFREMSPRKAASILEELKRDLAVEILLHMPEDGVAAILARMDPARAARLTEQLALEKD | -0.867 |
| HMNEMEFAQRLRQFRKAKNLTQQELADRLGVSNKSVSRWESGSYPDVGTLVALARALGVTVDELLDPKA | 0.149 |
| HMDDTPLNNVIKKIAALPENITLADKSAVLSAWEAYQALSVNLKAQVSNSELLIKAYETILQLEGEDQIK | -0.397 |
| HMGKKGPELSENEKSIFSILSKSGSMDLTTLKEASGLSNKQWDKGIKGLGKHGLTKVIKTEDALLVEVV | 0.0105 |
| HMQAVDPLELRAGDFVVHEQHGIGRYVEMVQRTIGGITREYLVIEYAPAKRGQPNDRVFVPTDTLEQVS | -0.579 |
| HMETSLVIQIDGAVNSPGIYQVTPGTRIFEALELAGGVREDAQTEALNLALPVYDGQRISIPSSFA | -1.58 |
| HMGNLEENFRLKAGTEDGAWEFIRYHLGKLPVVNESNGTAIVNAERQAFLLFDRMVAFHIQRGVMVPLSAP | -0.159 |
| HMLLGDYIQKLRNQRGLSQQEFADKLGIGRSTLANYEQNKRSPDYETLIEISKFFNVSIDELLGV | -0.342 |
| HMAKDDFMSFVKAVWPEFIEGAHHRVIAQKFNDLATGKITRLIVNMPPRHTKSEFASYLLPAW | -0.144 |
| HMRMTRQRKVILEELGKVYTHPTADEIYTMVKEKLPNISLGTVYRNLDLLAENNQVLKLETAGNIRRYD | -0.375 |
| HMGFKLQRYTTFVVERLKKYQDTPAAQMHDLLKEHYPDFPAVSPKTVYNYVMKIRQEHGLPAV | ≥ 0.43 |
| HMTWDSFIGYTVTDVQKGYLGEITDVDETTINVLLRVDHKGEELLIPAVEELITEADHEARSLTVSLPEGL | -2.11 |
| HMDPNFKYIIRIANSDVSGEQKLAYALTSIRGIGERTSNAIIQKLGLDSTQLAGKLTDKNVEDIESA | -0.0403 |
| HMVVPRSFKYEVLAHGGWAGNAQRYQTKEEALHAGLALSRRWTAVEDYRAVPSDDLPNQPAL | 0.127 |
| HMLTALTDREEEILVLLAHNLSNKEIAKRLNLSVNTVRNHTSHIYEKLNVTSRRKAITLAQSLHLLPP | -0.067 |
| HMQAVKQIKVERGMTLEKIAQSEFGDSTRWGEIVEVNNLRAPYISDDPTETRDGVLKPGSNLLIPIP | -0.825 |
| HMNMPDVTVEWVKEQQAKFGLTDSDLAKSVNIDNANLARIFNQRGLTKIHKALFYYFFRAYGLQ | -1.1 |
| HMYDEAAIRKAVMTFVTDNRDERLDLAKISAVLTSKFGNINFDELGYKRFSSFIDSFPELRRNNTFVSLR | -0.193 |
| HMGEKFTFGQIAKAKAYAKTYANDMTSAVKNIEAIATGLSKHPEVADTLKKANENQELNRITKLAG | 0.369 |
| HMFTSVDVAPDLRTAKVFYSVLGRKKSDKEINIAINQKRKAFKKFMGPELHLKNIPDLHFYYD | 0.115 |
| HMAHYYVRNGYYYYQRRIPLDLRKFYSGANIKASLKTKDPAIAALFVAKFDRQYDAEFAQRRLNPD | -0.277 |
| HMRNSFTVENTGERLDVFLTGQMPEFSRSHIQKLIASGQAWVNGVNRKGNFKLKPHDVVELEVPEPE | 0.169 |

| Sequence | soluble fraction (log2) |
| --- | --- |
| HMNIEDFKDKVKELKQYTYQELVEDVKLKTDRADVILPASKIYLEAMQQAKVDSIIVPKVGLAEGVAR | 0.149 |
| HMRMYDVNEYSDEELHRILDLSSPTDSELEARILQMIQKYKYTNGGDNEKMAVFFENIYHHFFD | -1.54 |
| HMTIAFPSNDVDAVVGYFESRGFDRTASISTATVILQQAKIDGVKVFELIDTLQGMDKVQLSYIVTEILN | -0.0582 |
| HMNVDSLIGKKARVLEDIDNLNAKGQVSIDGMEWTARSEDGSEIKKDALVEVVAIEGVKAIVKQ | -0.127 |
| HMADEIMYPVQVNGKVRAEIFVAADQSKNKELVLEMAKSEERVQKYLEEGNLIKEIFVPGRIVNLVI | -0.269 |
| HMNYTALLNNFSENMKKRRVELSLSQKELASIVGVSVRTIQNYENKKTIPTSAVMESISIALDMGLEKMID | 0.04 |
| HMEAEVIKTASDMADRNGLHNVSLKAIAENLGIRTPSLYNHIGSLDELLREIAHSGMRTMNE | -0.247 |
| HMDKGMQTMIDNLHKNTGKTLEEWIALVNRANFAKHGEVISFLKEKHGLTHGYANLVAHRLK | -0.361 |
| HMTHHGHSIKRIRDMLGIKQETLAAELNMTQQAFSKLEQKEQIEDEMLDKIAKILHVSTEALKT | -0.459 |
| HMVISNDEFEDYLNRATEQLVSELSSGKNPRDAVHDLALTFADQHNKSYDAYQRMADSLEARMHTL | -0.156 |
| HMVQQTEEDVIRDMYVEGKIFTIGEEVTDTYTGVTGKIIRRGTNYVTFMSEDGETYKKWLYEIELA | -1.82 |
| HMENTSPMTPEQSKALMAYLTKRHGDSREAYLSELSQFFGRPLSSSRELTKADVSEFLNAIN | -0.0703 |
| HMKISQSRKAGKLVLESELKRGGVSLDQYRGGRMSRILELIGVKSLNELLTDLGTGKKTGALVAERFFSGL | -0.036 |
| HMHQPPDLDDFEAFVGRVKPALLQALVATYGPVDGREATVDALSWAWEHWDRLADVDHPVGYLYRV | -0.189 |
| HMTKMTPNRQLVLSVLQSSGKPLSAYELLDRLREQGTQWQPPTAYRALDYLVEQGLAHYLQSIQKYV | -0.317 |
| HMPNGEAYQRFTYENDILEGRFEEWDSLGTDIVKGDYTAGVRHKKWLYYDSEGRRDKFVFLDMDSI | -0.345 |
| HMKTYSEAQLKIALESLIENGKKQGYLTFQEINEILPDGIINTQDLKVIISILKETGIVVAKEKPEINIDV | 0.273 |
| HMQMSWDAVKARLQDIVNNEDKTKPFNDEMLASKLKEQGIEIARRTVVKYRQQLGIPAARLRKK | -0.17 |
| HMDAINYEDFQLLIKQRGSFKVAFEDIMFSTKVAIEKKEDFYDFVTKLIDNGFNNMAYNYLEGFQD | -2.34 |
| HMAMMTKQRLIQLIHIARNDLQMDEDTYRQMLQGLTGKASTKGMDTPQLNRVLESMKKKGFRIK | ≥ 0.43 |
| HMSTALTPLTTREREVLALMAEGLTNSGIAARLVLTDRTVETHVSRILHKLGLGETTTNEHRRVLAVLRYL | -0.716 |
| HMELNDEELIKGIQELLTKIGYDPGEINGVLGIKTSSAISAFQQSRNKAITGEADLDLLVQLQIELRKITT | -1.32 |
| HMRQQSLHSLYRDHHSWLQNWLRRQLGNTWDAADLSQDTFIKVLASSQSVAEIREPRAYLLTVGKRL | -0.0586 |
| HMSDSISLTLNGDLRRFRAHATIADLVRDIGLDPVKVAVERNLEIVSRSTLEDVVLADGDRLEIVHFV | -2.67 |
